Positions count from the first letter of the chain named. Like-named read-outs stand apart in the source and are kept apart here. Values belong to the binder of their own block, whether it stands above or below them.
Columns and labels:
CGRP = experiment: cell-based or functional assay
PACAP38 [1] = target: T1, PACAP38 (UniProt P18509 132-169, biotinylated in the ELISAs); experiment: cell-based or functional assay
T1 peptide (looked up): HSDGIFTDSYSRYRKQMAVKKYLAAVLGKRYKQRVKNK

rat CGRP = target: T2, rat CGRP (rat, UniProt P01256 83-119); experiment: SPR, Biacore 8K, antibody captured on Protein A chip, 1:1 model
T2 peptide (looked up): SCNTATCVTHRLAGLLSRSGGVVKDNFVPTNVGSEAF
Description: A Protein A biosensor chip was used to affinity-capture IgG, and a molecule sample was then allowed to flow through the surface of the chip. Reaction signals were detected in real time using a Biacore 8K system to obtain association and dissociation curves. After the dissociation in each experimental cycle was complete, the biosensor chip was washed and regenerated 3 times with 50 mM NaOH. Data fitting was performed using a 1:1 model.

human CGRP = target: T3, human CGRP (human, UniProt P06881 83-119); experiment: SPR, Biacore 8K, 25 C, biotinylated antibody on SA chip, 1:1 model
T3 peptide (looked up): T2 peptide (looked up) with S1A, N3D, D25N, E35K
Description: First, the test antibodies ([…] for the mAbs and 4 μg/mL for the diabodies), biotinylated (indicated by Biotin-), were each coupled onto an SA biosensor chip. Then samples of the antigen human CGRP were sequentially injected in ascending order for 180 s, followed by dissociation. After the test was finished, fitting was performed using a 1:1 binding model.

PACAP27 [2] = target: T4, PACAP27 (UniProt P18509 132-158, biotinylated in the ELISAs); experiment: ELISA, antibody on coated anti-human Fc, biotinylated peptide
T4 peptide (looked up): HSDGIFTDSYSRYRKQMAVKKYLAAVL
Description: (§1) Plates were coated with 1 μg/mL anti-human Fc and blocked, and the antibodies, serially diluted, were added. […] The plates were incubated for 1 h and washed, and a horseradish peroxidase-labeled streptavidin secondary antibody was then added. After incubation, color development was performed.

PACAP38 [3] = target: T1, PACAP38; experiment: as above
Description: as §1

PACAP38 [4] = target: T1, PACAP38; experiment: competition ELISA, biotinylated PACAP38 to coated VPAC1-Fc
Description: (§2) The plates were incubated for 1 h and washed, and a horseradish peroxidase-labeled streptavidin secondary antibody was then added. After incubation, color development was performed.

PACAP38 [5] = target: T1, PACAP38; experiment: cell-based or functional assay
VIP = target: T5, VIP (UniProt P01282 125-152, biotinylated in the ELISA); experiment: ELISA, biotinylated VIP on streptavidin plate
T5 construct: also called vasoactive intestinal peptide
T5 peptide (looked up): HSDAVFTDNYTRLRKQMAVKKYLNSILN
Description: (§3) In this test example, the abilities of the chimeric antibodies and humanized antibodies of C1 #, C9 #, C21 #, and C28 #to bind to human CGRP and rat CGRP were assessed using ELISAs. Plates were coated with […] human CGRP and rat CGRP, respectively, and blocked, and the antibodies, serially diluted, were then added. The plates were incubated for 1 h and washed, and a horseradish peroxidase-labeled anti-human Fc secondary antibody was then added. After incubation, color development was performed. […] The plates were incubated for 1 h and washed, and the antibodies, serially diluted, were then added. The plates were incubated for 1 h and washed, and a horseradish peroxidase-labeled streptavidin secondary antibody was then added. After incubation, color development was performed.

PACAP38 [6] = target: T1, PACAP38; experiment: competition ELISA, biotinylated PACAP38 to coated PAC1-Fc
Description: as §2

PACAP27 [7] = target: T4, PACAP27; experiment: ELISA, biotinylated peptide on streptavidin plate
Description: as §3

PACAP38 [8] = target: T1, PACAP38; experiment: ELISA, biotinylated peptide on streptavidin plate
Description: as §3

PACAP38 [9] = target: T1, PACAP38; experiment: competition ELISA, biotinylated PACAP38 to coated VPAC2-Fc
Description: as §2

B3: P14#-CHI (antibody, human IgG1, kappa, V domains shown)
VH: DVKLVESGGGLVKPGGSLKVSCAASGFAFNNYDMSWVRQTPEKRLDWVATITGGGSYTWYPDSVKGRFTISRDNARNTLFLQMSSLRSEDTALYYCARLNGYDQAGAMDYWGQGTSVTVSS
VL: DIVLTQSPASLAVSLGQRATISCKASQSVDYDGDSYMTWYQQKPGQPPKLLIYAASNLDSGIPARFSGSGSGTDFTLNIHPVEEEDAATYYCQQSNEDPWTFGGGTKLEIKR
notes: chimeric: murine variable regions fused to human constant regions; also called P14#-CH1
IC50 (PACAP38 [4]): 0.27 nM
IC50, inhibition of cAMP production in SH-SY5Y cells (PACAP38 [5]): 1.46 nM
binding result (VIP): no binding
IC50 (PACAP38 [6]): 0.48 nM
EC50 (PACAP27 [7]): 0.14 nM
EC50 (PACAP38 [8]): 0.09 nM
IC50 (PACAP38 [9]): 0.23 nM

B4: P14H1L2 (antibody, human IgG1, kappa, V domains shown)
VH: EVQLVESGGGLVKPGGSLRLSCAASGFAFNNYDMSWVRQAPGKGLEWVATITGGGSYTWYPDSVKGRFTISRDNAKNSLYLQMNSLRAEDTAVYYCARLTGYDQAGAMDYWGQGTTVTVSS
VL: DIVLTQSPDSLAVSLGERATINCKASQSVDYDGDSYMTWYQQKPGQPPKLLIYAASNLDSGIPDRFSGSGSGTDFTLTISSLQAEDVAVYYCQQSNEDPWTFGGGTKVEIKR
IC50 (PACAP38 [4]): 0.19 nM
IC50, inhibition of cAMP production in SH-SY5Y cells (PACAP38 [5]): 2.37 nM
binding result (VIP): no binding
IC50 (PACAP38 [6]): 0.45 nM
EC50 (PACAP27 [7]): 0.19 nM
EC50 (PACAP38 [8]): 0.09 nM
IC50 (PACAP38 [9]): 0.18 nM

B5: P14H1L1 (antibody, human IgG1, kappa, V domains shown)
VH: B4 VH
VL: B4 VL with L4M, I62V
IC50 (PACAP38 [4]): 0.2 nM
binding result (VIP): no binding
IC50 (PACAP38 [6]): 0.51 nM
EC50 (PACAP27 [7]): 0.19 nM
EC50 (PACAP38 [8]): 0.11 nM
IC50 (PACAP38 [9]): 0.21 nM

Continued, values first:

IC50, inhibition of cAMP production in SK-N-MC cells (CGRP): 2.03 nM
IC50, inhibition of cAMP production in SH-SY5Y cells (PACAP38 [1]): 1.92 nM
Kd (rat CGRP): 0.358 nM
koff (rat CGRP): 0.000743 s⁻¹
kon (rat CGRP): 2.07e+06 M⁻¹ s⁻¹
Kd (human CGRP): 0.0117 nM
koff (human CGRP): 2.35e-05 s⁻¹
kon (human CGRP): 2e+06 M⁻¹ s⁻¹
EC50 (PACAP27 [2]): 0.16 nM
EC50 (PACAP38 [3]): 0.1 nM
B1: CP-2 (bispecific antibody)
heavy: EVQLVESGGGLVQPGGSLRLSCAASGFAFNNYDMSWVRQAPGKGLEWVATITGGGSYTWYPDSVKGRFTISRDNAKNSLYLQMNSLRAEDTAVYYCARLTGYDQAGAMDYWGQGTTVTVSSASTKGPSVFPLAPSSKSTSGGTAALGCLVKDYFPEPVTVSWNSGALTSGVHTFPAVLQSSGLYSLSSVVTVPSSSLGTQTYICNVNHKPSNTKVDKKVEPKSCEVQLVQSGAEVKKPGASVKVSCKASGYTFTDYYMNWVRQAPGQCLEWMGDINPNTGVTTYNQKFKGRVTITVDKSASTAYMELSSLRSEDTAVYYCASIIIVPDYFDYWGQGTTVTVSSGGGGSGGGGSGGGGSDIQMTQSPSSVSASVGDRVTITCKASQNVGSNVAWYQQKPGKSPKALIYSASYRYSGVPSRFSGSGSGTDFTLTISSLQPEDFATYYCQQYNSYPYTFGCGTKVEIKGGGDKTHTCPPCPAPELLGGPSVFLFPPKPKDTLYITREPEVTCVVVDVSHEDPEVKFNWYVDGVEVHNAKTKPREEQYNSTYRVVSVLTVLHQDWLNGKEYKCKVSNKALPAPIEKTISKAKGQPREPQVYTLPPSRDELTKNQVSLTCLVKGFYPSDIAVEWESNGQPENNYKTTPPVLDSDGSFFLYSKLTVDKSRWQQGNVFSCSVMHEALHNHYTQKSLSLSPGK
light: DIVLTQSPDSLAVSLGERATINCKASQSVDYDGDSYMTWYQQKPGQPPKLLIYAASHLDSGIPDRFSGSGSGTDFTLTISSLQAEDVAVYYCQQSNEDPWTFGGGTKVEIKRTVAAPSVFIFPPSDEQLKSGTASVVCLLNNFYPREAKVQWKVDNALQSGNSQESVTEQDSKDSTYSLSSTLTLSKADYEKHKVYACEVTHQGLSSPVTKSFNRGEC
notes: Format 2+2, anti-PACAP Fab (P14H2L3) and anti-CGRP scFv (C28H8L2), IgG1 (YTE) Fc; also called Biotin-CP-2

IC50, inhibition of cAMP production in SK-N-MC cells (CGRP): 5.79 nM
IC50, inhibition of cAMP production in SH-SY5Y cells (PACAP38 [1]): 11 nM
Kd (rat CGRP): 0.0897 nM
koff (rat CGRP): 0.000301 s⁻¹
kon (rat CGRP): 3.35e+06 M⁻¹ s⁻¹
Kd (human CGRP): 0.00764 nM
koff (human CGRP): 3.31e-05 s⁻¹
kon (human CGRP): 4.34e+06 M⁻¹ s⁻¹
EC50 (PACAP27 [2]): 0.33 nM
EC50 (PACAP38 [3]): 0.22 nM
B2: CP-3 (bispecific antibody, human IgG1, kappa)
heavy 1: EVQLVESGGGLVQPGGSLRLSCAASGFAFNNYDMSWVRQAPGKGLEWVATITGGGSYTWYPDSVKGRFTISRDNAKNSLYLQMNSLRAEDTAVYYCARLTGYDQAGAMDYWGQGTTVTVSSASTKGPSVFPLAPSSKSTSGGTAALGCLVKDYFPEPVTVSWNSGALTSGVHTFPAVLQSSGLYSLSSVVTVPSSSLGTQTYICNVNHKPSNTKVDKKVEPKSCDKTHTCPPCPAPELLGGPSVFLFPPKPKDTLYITREPEVTCVVVDVSHEDPEVKFNWYVDGVEVHNAKTKPREEQYNSTYRVVSVLTVLHQDWLNGKEYKCKVSNKALPAPIEKTISKAKGQPREPQVYTLPPCRDELTKNQVSLWCLVKGFYPSDIAVEWESNGQPENNYKTTPPVLDSDGSFFLYSKLTVDKSRWQQGNVFSCSVMHEALHNHYTQKSLSLSPGK
light 1: B1 light
heavy 2: EVQLVQSGAEVKKPGASVKVSCKASGYTFTDYYMNWVRQAPGQRLEWMGDINPNTGVTTYNQKFKGRVTITVDKSASTAYMELSSLRSEDTAVYYCASIIIVPDYFDYWGQGTTVTVSSGGGGSGIPPKIECLPIDISIDEGKVLTVASAFTGEPTPEVTWSTGGRKIHSQEQGRFHIENTDDSTTLTIKDVQKQDGGLYTLTLRNEFGSDSATVNIHIRSIDKTHTCPPCPAPELLGGPSVFLFPPKPKDTLYITREPEVTCVVVDVSHEDPEVKFNWYVDGVEVHNAKTKPREEQYNSTYRVVSVLTVLHQDWLNGKEYKCKVSNKALPAPIEKTISKAKGQPREPQVCTLPPSRDELTKNQVSLSCAVKGFYPSDIAVEWESNGQPENNYKTTPPVLDSDGSFFLVSKLTVDKSRWQQGNVFSCSVMHEALHNHYTQKSLSLSPGK
light 2: DIQMTQSPSSVSASVGDRVTITCKASQNVGSNVAWYQQKPGKSPKALIYSASYRYSGVPSRFSGSGSGTDFTLTISSLQPEDFATYYCQQYNSYPYTFGGGTKVEIKGGGGSSGAPRFLTRPKASVVSVGKDATLSCQIVGNPFPQVSWEKDKQPVTAGVRFRLAQDGDLYRLKILDLQLSDSGQYVCRARNAHGEAFACLGLQVDAEA
notes: Format 1+1, anti-PACAP Fab (P14H2L3) and anti-CGRP Titin/Obscurin Fab (C28H6L1), knob-into-hole IgG1 (YTE) Fc; also called Biotin-CP-3

IC50, inhibition of cAMP production in SH-SY5Y cells (PACAP38 [1]): 2.4 nM
IC50 (PACAP38 [4]): 0.58 nM
IC50, inhibition of cAMP production in SH-SY5Y cells (PACAP38 [5]): 4.02 nM
binding result (VIP): no binding
IC50 (PACAP38 [6]): 0.67 nM
EC50 (PACAP27 [7]): 0.2 nM
EC50 (PACAP38 [8]): 0.09 nM
IC50 (PACAP38 [9]): 0.4 nM
EC50 (PACAP27 [2]): 0.16 nM
EC50 (PACAP38 [3]): 0.13 nM
B6: P14H2L3 (antibody, human IgG1, kappa, V domains shown)
VH: B4 VH with K13Q
VL: B4 VL with N57H
